Experimental data reported in patent US20060222643A1 (Chugai, published 2006).
No end group written: not given here.

How the values were obtained:
[1] = target: T1, MG10 (Gln213 to Ala231)-GST fusion protein (human, also: fused with GST); assay: SPR, Biacore 3000, MG10-GST immobilized on CM5, Bivalent analyte model (constants as for the monovalent antibody), triplicate
T1 construct: As MG1; also called MG10-GST fusion protein; GST fusion protein containing MG10; not shown: glutathione-S-transferase of vector pGEX-4T-3 (Amersham Biosciences)
T1 chain: QPTMPWQDGPKQTSPSREA
Method: The Sensor Chip CM5 (Biacore) was placed in Biacore 3000 (Biacore), and MG10-GST fusion protein was immobilized onto the chip by amine-coupling methods. HBS-EP Buffer (Biacore) was used as the running buffer, and the flow rate was 20 μL/min. 5.5 to 175.0 nM of VB22B IgG solution was prepared using HBS-EP Buffer, and injected over each of the chip surfaces for 2 min to obtain the binding region at the respective concentrations. Then, dissociation region for the 2 minutes was measured. VB22B IgG bound to the MG10-GST fusion protein on the sensor chip was removed by injecting 20 mM HCl over the sensor chip for 1 min, and the chip was recovered. Similarly, 4.7 to 150.1 nM of VB22B sc(Fv)2, 5.3 to 168.9 nM of hVB22B q-wz5 sc(Fv)2, and 4.9 to 156.8 nM of hVB22B u2-wz4 sc(Fv)2 were prepared and injected over the chip surfaces onto which MG10-GST fusion protein was immobilized, and the measurement was carried out.
All the antibodies used were bivalent antibodies, and thus the sensorgrams at each concentration were obtained in the presence of both monovalent and bivalent bindings. In this context, the reaction rate constant was determined as that for the monovalent antibody by analysis using the Bivalent analyte model of BIAevaluation ver.3.1 software (Biacore). The above analysis was carried out in triplicates for each antibody. The binding rate constant (ka), dissociation rate constant (kd), and dissociation constant (KD) were determined as those for the monovalent antibody by the procedure described above. The constants are indicated below in Table 1.

[2] = target: T2, human Mpl-IgG Fc fusion protein (human, UniProt P40238 26-491); assay: SPR, Biacore 2000, human Mpl-IgG Fc immobilized on CM5 by amine coupling, 1.25 to 20 µg/mL VB22B IgG injected
T2 construct: Expressed in CHO-DG44 with a 19-residue signal peptide from a human IgG H chain variable region (left out); also called hMpl-Fc; hMPL-Fc; not shown: Fc region of human IgG-gamma1 (a region downstream of Asp 216)
T2 sequence: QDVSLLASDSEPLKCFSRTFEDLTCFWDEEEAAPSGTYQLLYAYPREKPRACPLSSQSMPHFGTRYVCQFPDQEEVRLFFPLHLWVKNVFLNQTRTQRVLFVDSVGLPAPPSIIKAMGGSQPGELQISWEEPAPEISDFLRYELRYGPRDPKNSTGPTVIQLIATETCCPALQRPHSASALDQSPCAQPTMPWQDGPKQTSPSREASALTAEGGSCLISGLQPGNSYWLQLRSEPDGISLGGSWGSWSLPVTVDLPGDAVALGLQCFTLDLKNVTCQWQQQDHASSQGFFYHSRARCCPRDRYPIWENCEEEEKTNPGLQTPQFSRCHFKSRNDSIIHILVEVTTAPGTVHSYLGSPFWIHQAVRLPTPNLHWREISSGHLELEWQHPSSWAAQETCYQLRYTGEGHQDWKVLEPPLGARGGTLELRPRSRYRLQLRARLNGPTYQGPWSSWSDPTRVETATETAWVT
Method: Since the anti-human Mpl antibody VB22B binds to soluble recombinant Mpl, kinetic analyses of the antigen-antibody reaction between VB22B IgG and human Mpl-IgG Fc fusion protein were carried out as described in Example 1.4. The Sensor Chip CM5 (Biacore) was placed in Biacore 2000 (Biacore), and human Mpl-IgG Fc fusion protein was immobilized onto the chip by amine-coupling methods. Then, 1.25 to 20 μg/mL of VB22B IgG solution was prepared using HBS-EP Buffer (Biacore), and injected over the chip surface for 2 min to reveal the binding region. Then, HBS-EP Buffer was injected over the chip surface for 2 min to reveal the dissociation region. VB22B IgG bound to the human Mpl-IgG Fc fusion protein on the sensor chip was removed by injecting 10 mM NaOH over the sensor chip for 15 sec, and the chip was recovered. HBS-EP Buffer was used as the running buffer, and the flow rate was 20 μL/min. Using the BIAevaluation Version 3.1 (Biacore) software, the reaction rate constant at each concentration was calculated from the sensorgrams.

Kd [1]: 11.5 nM
koff [1]: 0.0011 s⁻¹
kon [1]: 96000 M⁻¹ s⁻¹
Kd [2]: 1.67 nM
B1: anti-human Mpl antibody VB22B IgG (antibody, V domains shown)
VH: QVQLQQSGPELVKPGASVKISCKASGYAFTNSWMNWVKQRPGKGLEWIGRIYPGDGETIYNGKFRVKATLTADKSSSTAYMDISSLTSEDSAVYFCARGYDDYSFAYWGQGTLVTVSA
VL: DIVMTQAAPSIPVTPGESVSISCRSSKSLLHSNGNTYLYWFLQRPGQSPQLLIYRMSNLASGVPDRFSGSGSGTAFTLRISRVEAEDVGVYYCMQHIEYPFTFGSGTKLEIK
notes: also called murine antibody VB22B
